In publication PMC2576301, “The crystal structure of the catalytic domain of a eukaryotic guanylate cyclase” (BMC Structural Biology, 2008) one finds stoichiometry N and K0.5 data, which are given here for 2 molecules.

For data set [1], the target named is catalytic domain of the soluble guanylate cyclase CYG12 from Chlamydomonas reinhardtii (Chlamydomonas reinhardtii). The data set can be described thus: crystal structure; sitting-drop vapor diffusion, 20°C; 0.1 M sodium cacodylate pH 5.0-6.4, 42-62% saturated (NH4)2HPO4; molecular replacement; 2.55 Å; one dimer per asymmetric unit.
Substrate in data set [2]: Nc1nc2c(ncn2[C@@H]2O[C@H](COP(=O)(O)OP(=O)(O)OP(=O)(O)O)[C@@H](O)[C@H]2O)c(=O)[nH]1
Nature of the data set: cGMP formation, enzyme immunoassay; Hill fit. Conditions: 4 mM MnCl2, pH 7.5, 24 °C, 5 mM dithiothreitol, 2 min, positive cooperativity, Hill coefficient 1.49 ± 0.16. Format: biochemical, Chlamydomonas reinhardtii.

As usually defined, the stoichiometry N is the number of molecules, sites or subunits per partner or assembly. With “catalytic domain of the soluble guanylate cyclase CYG12 from Chlamydomonas reinhardtii (domain or fragment)”, the stoichiometry N in data set [1] was 2.

B1: guanylate cyclase catalytic domain of CYG12 (Chlamydomonas reinhardtii) (protein)
chain: APAQEHPEATVLFSDIVGFTEIASRSSPLEVCSLLDELYQRFDAAIEEYPQLYKVETIGDAYMVVCNVTVPCDDHADVLLEFALRMHEEASRVASSLGEPVRIRVGMHSGPVVAGVVGRKMPRFCLFGDTVNTASRMESHGEAGQIHISEACYCCLRSKERFEIRERGNITVKGKGTMRTYLLSPLER
notes: catalytic domain, residues 468-655 of 991; His-SMT3 (SUMO) fusion cleaved off; expressed in E. coli Tuner(DE3); homodimer
Take B1: the K0.5 in data set [2] stood at 269 ± 26 µM.
